Laboratory results from paper PMC6053506.

How the values were obtained:
[1] = target: AQP4-IgG (rAb-53) with the Fc mutation P331G (human); test: BLI; Octet K2, 30°C; antibody (6 µg/ml) loaded on anti-human Fab-CH1 biosensors; mouse FcRn-b2m in solution, 2,000 to 0 nM; 100 mM sodium phosphate, 150 mM NaCl, 0.05% Tween-20, pH 6; 60 s association, 60 s dissociation
[2] = target: AQP4-IgG (rAb-53) with the Fc mutation N297D (human); test: as above
[3] = target: AQP4-IgG (rAb-53) with the Fc mutation D270A (human); test: as above
Chain of AQP4-IgG (rAb-53) with the Fc mutation D270A (human) (heavy, as listed by the source, chain 1 of 2): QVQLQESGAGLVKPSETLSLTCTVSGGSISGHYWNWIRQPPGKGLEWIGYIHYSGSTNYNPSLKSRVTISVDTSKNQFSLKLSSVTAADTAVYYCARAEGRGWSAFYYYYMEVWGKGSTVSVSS
Chain of AQP4-IgG (rAb-53) with the Fc mutation D270A (human) (light, as listed by the source, chain 2 of 2): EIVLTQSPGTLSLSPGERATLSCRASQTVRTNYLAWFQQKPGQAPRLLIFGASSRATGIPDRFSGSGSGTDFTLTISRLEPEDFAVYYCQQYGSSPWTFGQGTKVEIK

[4] = target: AQP4-IgG (rAb-53) with the Fc mutation K322A (human); test: as above
Chain of AQP4-IgG (rAb-53) with the Fc mutation K322A (human) (heavy, as listed by the source, chain 1 of 2): as the sequence (heavy, as listed by the source, chain 1 of 2) above
Chain of AQP4-IgG (rAb-53) with the Fc mutation K322A (human) (light, as listed by the source, chain 2 of 2): as the sequence (light, as listed by the source, chain 2 of 2) above

[5] = target: human monoclonal AQP4-IgG (rAb-53), wild type (human); test: as above
Chain of human monoclonal AQP4-IgG (rAb-53), wild type (human) (heavy, as listed by the source, chain 1 of 2): as the sequence (heavy, as listed by the source, chain 1 of 2) above
Chain of human monoclonal AQP4-IgG (rAb-53), wild type (human) (light, as listed by the source, chain 2 of 2): as the sequence (light, as listed by the source, chain 2 of 2) above

[6] = target: isotype control antibody directed against measles virus (2B4-IgG) (human); test: as above
[7] = target: AQP4-IgG (rAb-53) with the Fc mutation P329A (human); test: as above
Chain of AQP4-IgG (rAb-53) with the Fc mutation P329A (human) (heavy, as listed by the source, chain 1 of 2): as the sequence (heavy, as listed by the source, chain 1 of 2) above
Chain of AQP4-IgG (rAb-53) with the Fc mutation P329A (human) (light, as listed by the source, chain 2 of 2): as the sequence (light, as listed by the source, chain 2 of 2) above

[8] = target: AQP4-IgG (rAb-53) with the Fc mutation P331G (human); test: BLI; Octet K2, 30°C; antibody (6 µg/ml) loaded on anti-human Fab-CH1 biosensors; mouse FcRn-b2m in solution; PBS pH 7.2 for dilution, association and dissociation
[9] = target: AQP4-IgG (rAb-53) with the Fc mutation N297D (human); test: as above
[10] = target: AQP4-IgG (rAb-53) with the Fc mutation K322A (human); test: as above

Chain of AQP4-IgG (rAb-53) with the Fc mutation N297D (human) (heavy, as listed by the source, chain 1 of 2): as the sequence (heavy, as listed by the source, chain 1 of 2) above
Chain of AQP4-IgG (rAb-53) with the Fc mutation N297D (human) (light, as listed by the source, chain 2 of 2): as the sequence (light, as listed by the source, chain 2 of 2) above
Chain of AQP4-IgG (rAb-53) with the Fc mutation P331G (human) (heavy, as listed by the source, chain 1 of 2): as the sequence (heavy, as listed by the source, chain 1 of 2) above
Chain of AQP4-IgG (rAb-53) with the Fc mutation P331G (human) (light, as listed by the source, chain 2 of 2): as the sequence (light, as listed by the source, chain 2 of 2) above

- Req [1]: 0.915
- Req [2]: 1
- Req [3]: 0.43
- Req [4]: 0.987
- Req [5]: 0.851
- Req [6]: 0.76
- Req [7]: 1.16
- Req [8]: 0.151
- Req [9]: 0.136
- Req [10]: 0.198
Substance: mouse FcRn-Beta-2 microglobulin heterodimer protein (from UniProt Q61559 22-297; P01887 21-119) (complex)
